Paper PMC3438196

Columns and labels:
Experiment in all cases: two-hybrid; MAPPIT (mammalian two-hybrid) in intact HEK293T cells: bait on the EpoR/leptin receptor chimera, prey on gp130 fragments, pXP2d2-rPAP1-luciferase reporter; fold induction of luciferase, Epo-stimulated (10 ng/ml hEpo) over unstimulated; 6-well or 96-well calcium phosphate transfection
[1] = target: Apobec3G N31S MAPPIT bait (human) (UniProt Q9HC16)
[2] = target: Apobec3G Y19A MAPPIT bait (human) (UniProt Q9HC16)
[3] = target: Apobec3G Y124A MAPPIT bait (human) (UniProt Q9HC16)
Sequence of Apobec3G Y124A MAPPIT bait (human) (Q9HC16 whole entry Y124A): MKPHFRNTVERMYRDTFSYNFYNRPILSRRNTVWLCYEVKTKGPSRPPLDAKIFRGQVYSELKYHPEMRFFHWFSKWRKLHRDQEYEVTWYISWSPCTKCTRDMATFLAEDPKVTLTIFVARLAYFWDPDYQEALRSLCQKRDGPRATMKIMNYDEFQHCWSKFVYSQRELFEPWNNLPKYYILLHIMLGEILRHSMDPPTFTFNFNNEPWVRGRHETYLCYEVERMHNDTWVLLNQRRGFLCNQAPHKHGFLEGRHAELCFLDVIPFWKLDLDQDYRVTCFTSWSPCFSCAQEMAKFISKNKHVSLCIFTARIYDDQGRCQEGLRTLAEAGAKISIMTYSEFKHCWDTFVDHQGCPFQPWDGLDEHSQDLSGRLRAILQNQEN

[4] = target: Apobec3G YS166-167AA MAPPIT bait (human) (UniProt Q9HC16)
Sequence of Apobec3G YS166-167AA MAPPIT bait (human) (Q9HC16 whole entry Y166A/S167A): as the sequence (Q9HC16 whole entry Y124A) above, with A124Y, Y166A, S167A counted along it

[5] = target: Apobec3G M12A MAPPIT bait (human) (UniProt Q9HC16)
Sequence of Apobec3G M12A MAPPIT bait (human) (Q9HC16 whole entry M12A): as the sequence (Q9HC16 whole entry Y124A) above, with M12A, A124Y counted along it

[6] = target: Apobec3G R11S MAPPIT bait (human) (UniProt Q9HC16)
Sequence of Apobec3G R11S MAPPIT bait (human) (Q9HC16 whole entry R11S): as the sequence (Q9HC16 whole entry Y124A) above, with R11S, A124Y counted along it

[7] = target: Apobec3G K63E MAPPIT bait (human) (UniProt Q9HC16)
Sequence of Apobec3G K63E MAPPIT bait (human) (Q9HC16 whole entry K63E): as the sequence (Q9HC16 whole entry Y124A) above, with K63E, A124Y counted along it

[8] = target: Apobec3G TK98-99AD MAPPIT bait (human) (UniProt Q9HC16)
Sequence of Apobec3G TK98-99AD MAPPIT bait (human) (Q9HC16 whole entry T98A/K99D): as the sequence (Q9HC16 whole entry Y124A) above, with T98A, K99D, A124Y counted along it

[9] = target: Apobec3G T32E MAPPIT bait (human) (UniProt Q9HC16)
Sequence of Apobec3G T32E MAPPIT bait (human) (Q9HC16 whole entry T32E): as the sequence (Q9HC16 whole entry Y124A) above, with T32E, A124Y counted along it

[10] = target: Apobec3G D128K MAPPIT bait (human) (UniProt Q9HC16)
Sequence of Apobec3G D128K MAPPIT bait (human) (Q9HC16 whole entry D128K): as the sequence (Q9HC16 whole entry Y124A) above, with A124Y, D128K counted along it

[11] = target: Apobec3G W34A MAPPIT bait (human) (UniProt Q9HC16)
Sequence of Apobec3G W34A MAPPIT bait (human) (Q9HC16 whole entry W34A): as the sequence (Q9HC16 whole entry Y124A) above, with W34A, A124Y counted along it

[12] = target: Apobec3G P129A MAPPIT bait (human) (UniProt Q9HC16)
Sequence of Apobec3G P129A MAPPIT bait (human) (Q9HC16 whole entry P129A): as the sequence (Q9HC16 whole entry Y124A) above, with A124Y, P129A counted along it

[13] = target: Apobec3G E110K MAPPIT bait (human) (UniProt Q9HC16)
Sequence of Apobec3G E110K MAPPIT bait (human) (Q9HC16 whole entry E110K): as the sequence (Q9HC16 whole entry Y124A) above, with E110K, A124Y counted along it

[14] = target: Apobec3G L184A MAPPIT bait (human) (UniProt Q9HC16)
Sequence of Apobec3G L184A MAPPIT bait (human) (Q9HC16 whole entry L184A): as the sequence (Q9HC16 whole entry Y124A) above, with A124Y, L184A counted along it

[15] = target: Apobec3G E110S MAPPIT bait (human) (UniProt Q9HC16)
Sequence of Apobec3G E110S MAPPIT bait (human) (Q9HC16 whole entry E110S): as the sequence (Q9HC16 whole entry Y124A) above, with E110S, A124Y counted along it

[16] = target: Apobec3G R55A MAPPIT bait (human) (UniProt Q9HC16)
Sequence of Apobec3G R55A MAPPIT bait (human) (Q9HC16 whole entry R55A): as the sequence (Q9HC16 whole entry Y124A) above, with R55A, A124Y counted along it

Sequence of Apobec3G N31S MAPPIT bait (human) (Q9HC16 whole entry N31S): as the sequence (Q9HC16 whole entry Y124A) above, with N31S, A124Y counted along it
Sequence of Apobec3G Y19A MAPPIT bait (human) (Q9HC16 whole entry Y19A): as the sequence (Q9HC16 whole entry Y124A) above, with Y19A, A124Y counted along it

Q: “Gagpol MAPPIT prey (pMG2-Gagpol) (natural protein)” was tested. Which MAPPIT signal, % of WT [1] did it give?
A: 78 % of WT

Q: And the MAPPIT signal, % of WT [2]?
A: 36 % of WT

Q: And the MAPPIT signal, % of WT [3]?
A: 61 % of WT

Q: And the MAPPIT signal, % of WT [4]?
A: 80 % of WT

Q: And the MAPPIT signal, % of WT [5]?
A: 25 % of WT

Q: And the MAPPIT signal, % of WT [6]?
A: 83 % of WT

Q: What about the MAPPIT signal, % of WT [7] of the same substance?
A: 104 % of WT

Q: What about the MAPPIT signal, % of WT [8] of the same substance?
A: 74 % of WT

Q: And the MAPPIT signal, % of WT [9]?
A: 81 % of WT

Q: And the MAPPIT signal, % of WT [10]?
A: 98 % of WT

Q: What about the MAPPIT signal, % of WT [11] of the same substance?
A: 50 % of WT

Q: What about the MAPPIT signal, % of WT [12] of the same substance?
A: 70 % of WT

Q: What about the MAPPIT signal, % of WT [13] of the same substance?
A: 84 % of WT

Q: And the MAPPIT signal, % of WT [14]?
A: 110 % of WT

Q: What about the MAPPIT signal, % of WT [15] of the same substance?
A: 80 % of WT

Q: What about the MAPPIT signal, % of WT [16] of the same substance?
A: 64 % of WT
